Experiment [1] has as its target T1, human CD200R1 on cells (HH, Jurkat-CD200R1, U937-CD200R1) (human) (UniProt Q8TD46).
T1 sequence (looked up): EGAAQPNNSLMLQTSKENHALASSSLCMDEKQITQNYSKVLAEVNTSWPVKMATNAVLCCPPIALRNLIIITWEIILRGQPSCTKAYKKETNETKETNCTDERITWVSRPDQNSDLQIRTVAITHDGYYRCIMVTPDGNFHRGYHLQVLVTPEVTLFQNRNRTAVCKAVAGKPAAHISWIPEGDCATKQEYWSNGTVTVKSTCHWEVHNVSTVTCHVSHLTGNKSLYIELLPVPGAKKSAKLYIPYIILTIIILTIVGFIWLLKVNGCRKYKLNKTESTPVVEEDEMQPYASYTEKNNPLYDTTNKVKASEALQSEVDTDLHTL
The experiment can be described thus: cell-based or functional assay.

The target of experiment [2] is T1, human CD200R1 on cells (HH, Jurkat-CD200R1, U937-CD200R1) (human). Kind of experiment: flow cytometry, HH cells. A general note: A flow cytometer gives signals particle by particle.
Experiment [3] has the same target. Kind of experiment: flow cytometry, U937-CD200R cells.
The target is the same in experiment [4]. The experiment can be described thus: flow cytometry, Jurkat-CD200R cells.
For experiment [5], the target named is T2, mouse CD200R1 protein (R&D systems, 2554-CD) (mouse, UniProt Q9ES57 26-238).
T2 construct: the same entry is used
T2 sequence (looked up): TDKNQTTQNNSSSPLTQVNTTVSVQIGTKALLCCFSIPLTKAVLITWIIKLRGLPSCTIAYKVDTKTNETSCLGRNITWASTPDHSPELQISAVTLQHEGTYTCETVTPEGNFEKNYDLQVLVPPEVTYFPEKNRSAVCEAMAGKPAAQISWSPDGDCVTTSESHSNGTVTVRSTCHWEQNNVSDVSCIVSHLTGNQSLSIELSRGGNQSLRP
The experiment can be described thus: ELISA on coated mouse CD200R1 protein.

Experiment [6] addresses T3, human CD200R1 recombinant protein (human) (UniProt Q8TD46).
T3 sequence (looked up): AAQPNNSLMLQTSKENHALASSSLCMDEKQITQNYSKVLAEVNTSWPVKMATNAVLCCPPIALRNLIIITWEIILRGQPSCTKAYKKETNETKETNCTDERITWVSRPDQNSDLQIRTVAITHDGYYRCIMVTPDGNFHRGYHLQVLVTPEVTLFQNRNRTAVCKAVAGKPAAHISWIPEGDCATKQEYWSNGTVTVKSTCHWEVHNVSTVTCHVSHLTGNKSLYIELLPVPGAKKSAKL
Kind of experiment: ELISA of hybridoma clones on human CD200R1. (An ELISA detects its analyte on a solid surface through an enzyme-linked reagent.)

This note sets out measurements from patent EP4722249A1 (AIMED BIO INC., dated 2026).

Positions count from the first letter of the chain named.

As a reminder, the EC50 is the concentration at which the effect is half-maximal. In experiment [1], “LY3454738 (US 2020/0087395, I-4P, Eli Lilly) (antibody)” displayed an EC50 (nM), degree of signal transduction by the Dok2 protein, Jurkat-CD200R1 reporter cells greater than 10000 nM; an IC50 (nM) of IL-6 suppression, LPS-treated U937-CD200R1 cells of 1.72 nM; an IC50 (nM) of TNF-α suppression, LPS-treated U937-CD200R1 cells of 6.03 nM; an IL-6 (pg/ml), LPS-treated U937-CD200R1 cells, log [Ab] (M) -7 of 523 pg/ml. For the same molecule, in experiment [1], the IL-6 (pg/ml), LPS-treated U937-CD200R1 cells, log [Ab] (M) -8 turned out to be 1330 pg/ml; the IL-6 (pg/ml), LPS-treated U937-CD200R1 cells, log [Ab] (M) -9 amounted to 2670 pg/ml; the IL-6 (pg/ml), LPS-treated U937-CD200R1 cells, log [Ab] (M) -10 turned out to be 3380 pg/ml; the IL-6 (pg/ml), LPS-treated U937-CD200R1 cells, log [Ab] (M) -11 is 3550 pg/ml. Moreover, in experiment [1], the IL-6 (pg/ml), LPS-treated U937-CD200R1 cells, log [Ab] (M) -12 turned out to be 4530 pg/ml; the RLU (a.u.), phospho-Dok2 luminescence, Jurkat-CD200R1 reporter cells, antibody dose 0.05 nM was found to be 9260 a.u; the RLU (a.u.), phospho-Dok2 luminescence, Jurkat-CD200R1 reporter cells, antibody dose 0.10 nM is 8400 a.u; the RLU (a.u.), phospho-Dok2 luminescence, Jurkat-CD200R1 reporter cells, antibody dose 0.20 nM is 8000 a.u. In experiment [1], the RLU (a.u.), phospho-Dok2 luminescence, Jurkat-CD200R1 reporter cells, antibody dose 0.39 nM was found to be 8960 a.u; the RLU (a.u.), phospho-Dok2 luminescence, Jurkat-CD200R1 reporter cells, antibody dose 0.78 nM was determined as 8900 a.u; the RLU (a.u.), phospho-Dok2 luminescence, Jurkat-CD200R1 reporter cells, antibody dose 1.56 nM turned out to be 9100 a.u; the RLU (a.u.), phospho-Dok2 luminescence, Jurkat-CD200R1 reporter cells, antibody dose 3.13 nM came to 9470 a.u. In experiment [1], the RLU (a.u.), phospho-Dok2 luminescence, Jurkat-CD200R1 reporter cells, antibody dose 6.25 nM was 8930 a.u; the RLU (a.u.), phospho-Dok2 luminescence, Jurkat-CD200R1 reporter cells, antibody dose 12.5 nM is 13000 a.u; the RLU (a.u.), phospho-Dok2 luminescence, Jurkat-CD200R1 reporter cells, antibody dose 25 nM was determined as 22700 a.u; the RLU (a.u.), phospho-Dok2 luminescence, Jurkat-CD200R1 reporter cells, antibody dose 50 nM came out at 25600 a.u. In experiment [1], this molecule showed a TNF-α (pg/ml), LPS-treated U937-CD200R1 cells, log [Ab] (M) -7 of 472 pg/ml; a TNF-α (pg/ml), LPS-treated U937-CD200R1 cells, log [Ab] (M) -8 of 1040 pg/ml; a TNF-α (pg/ml), LPS-treated U937-CD200R1 cells, log [Ab] (M) -9 of 1480 pg/ml; a TNF-α (pg/ml), LPS-treated U937-CD200R1 cells, log [Ab] (M) -10 of 3760 pg/ml. In experiment [1], the TNF-α (pg/ml), LPS-treated U937-CD200R1 cells, log [Ab] (M) -11 worked out at 4950 pg/ml and the TNF-α (pg/ml), LPS-treated U937-CD200R1 cells, log [Ab] (M) -12 came to 5490 pg/ml. The molecule further yielded an EC50 in experiment [2] of 82.7 nM. This molecule also came in with an EC50 in experiment [3] of 152 nM. The EC50 in experiment [4] worked out at 43.5 nM.

B1: P001015 (antibody, V domains shown)
VH: EVQLLESGGGLVQPGGSLRLSCAASGFTFSSYDMSWVRQVPGKGLEWVSWISHGGGSIYYADSVKGRFTISRDNSKNTLYLQMNSLRAEDTAVYYCARDAPAYSAPLFDYWGQGTLVTVSS
VL: QSVLTQPPSASGTPGQRVTISCSGSSSNIGNNAVNWYQQLPGTAPKLLIYYDSNRPSGVPDRFSGSKSGTSASLAISGLRSEDEADYYCAAWDDSLSGYVFGGGTKLTVL
On to B1, for which, in experiment [5], the binding result was “no binding (tested: up to 300 nM)”.

B2: 6C3 (antibody, V domains shown)
VH: QVQLQQPGAELVRPGASVKLSCKASAYTFTSYWMNWVKQRPEQGLEWIGRIDPYDSETHYNQKFKDKAILTVDKSSSTAYMQLSSLTSEDSAVYYCARVDGNHLFDYWGQGTTLTVSS
VL: DIKMTQSPSSMYASLGERVTITCKASQDINSYLSWFQQKPGKSPKTLIYRANRLVDGVPSRFSGSGSGQDYSLTISSLEYEDMGIYYCLQYDEFPYTFGGGTKLEIK
B2: the ELISA O.D. in experiment [6] is greater than 1.5 O.D.

B3: 1F1 (antibody, V domains shown)
VH: QVQLQQPGAEFVKPGAPVKLSCKASGYTFTSYWMNWVKQRPGRGLEWIGRIDPADSEIHYNQKFKDKATLTVDKSSSTAYIQFSSLTSEDSAVYYCARSGGWLPGFAYWGQGTLVTVSA
VL: ENVLTQSPAIMSASPGEKVTMTCSASSSLIYMHWYQQKSSTSPKLWIYDTSKLASGVPGRFSGSGSGNSYSLTINSMEAEDVATYYCFQGSGYPLMYTFGGGTKLEIK
For the molecule B3, in experiment [6], the ELISA O.D. is greater than 1.5 O.D.

B4: 3G4 (antibody, V domains shown)
VH: B3 VH with F11L, Y27F, F29L, A54S, I58T, F83L, S84T
VL: B3 VL with S26R, L29V, I30S, S40R, N75S, Y93D
On to B4, for which the ELISA O.D. in experiment [6] was greater than 1.5 O.D.

B5: 6A8 (antibody, V domains shown)
VH: B3 VH with F11L, A54S, I58T, F83L
VL: B3 VL with I30S, H33L, N75S, A83G, Y93N
Regarding B5, in experiment [6], the ELISA O.D. was greater than 1.5 O.D.

B6: 1H10 (antibody, V domains shown)
VH: QVQLQQPGAELVKPGTSVKLSCKASGYNFTSYWINWVKLRPGQGLEWIGDINPGSGSTNYNEKFRSKATLTVGTSSSTAYMQLSSLASEDSALYYCAREDYYGSRFFYWGQGTLVTVSA
VL: DVVMTQTPLSLPVSLGDQASISCRSSQSLVHSNGNTYLHWYLQKPGQSPKLLIYKVSNRFSGVPDRFSGSGSGTDFTLKISRVEAEDLGVYFCSQSTHVTFGAGTKLELK
Regarding B6, in experiment [6], the ELISA O.D. is greater than 1.5 O.D.

B7: 6A10 (antibody, V domains shown)
VH: QLQQSGAELVRSGASVKLSCTASGFNIKDYYLHWIKQRPEQGLEWIGWIDPENGDTEYAPKFQGKATMTADTSSNTAYLQLISLTSEDAAVYYCFAGGSYWGQGTSVTVSS
VL: DIVMTQSPSSLSVSAGEKVTMSCKSSQSLLNSGNQKNYLAWYQQKPGQPPKLLIYGASTRESGVPDRFTGSGSGTDFTLTISSVQAEDLAVYYCQNDHSYPYTFGGGTKLEIK
With B7, in experiment [6], the ELISA O.D. was greater than 1.5 O.D.

B8: 5E9 (antibody, V domains shown)
VH: QVQLQQSGAELARPGASVKLSCKASGYTFTSYWMQWVKQRPGQGLEWIGAIYPGDGDTRYTQKFKGKATLTADKSSSTAYMQLRSLASEDSAVFYCARGGVTTLVPYFFDYWGQGATLTVSS
VL: DVLMTQTPLSLPVSLGDQASISCRSSQSIVHSNGNTYLEWYLQKPGQSPKLLIYKVSNRFSGVPDRFSGSGSGTDFTLKISRVEAEDLGVYYCFQGSHVPPTFGGGTKLEIK
Turning to B8, the ELISA O.D. in experiment [6] is greater than 1.5 O.D.
